Measured values reported in paper PMC9313104 (Biomedicines, 2022).
“Also recorded” adds a separate entry of the source. Where two headings read alike, the source gives them in different places.

Legend:
[1] = test system: Na,K-ATPase; parameters: method as in 2 sources, one per row (each row's own in cited_ref): ref [10],[18] = [10]; PMID 30210292; doi:10.3389/fnmol.2018.00302; 10. Barykin E.P. Petrushanko I.Y. Kozin S.A. Telegin G.B. Chernov A.S. Lopina O.D. Radko S.P. Mitkevich V.A. Makarov A.A. Phosphorylation of the Amyloid-Beta Peptide Inhibits Zinc-Dependent Aggregatio || [18]; PMID 27296892; doi:10.1038/srep27738; 18. Petrushanko I.Y. Mitkevich V.A. Anashkina A.A. Adzhubei A.A. Burnysheva K.M. Lakunina V.A. Kamanina Y.V. Dergousova E.A. Lopina O.D. Ogunshola O.O. Direct Interaction of Beta-Amyloid with Na,K-ATP ||| ref [39] = [39]; PMID 26297827; doi:10.1016/j.febslet.2015.08.011; 39. Klimanova E.A. Petrushanko I.Y. Mitkevich V.A. Anashkina A.A. Orlov S.N. Makarov A.A. Lopina O.D. Binding of Ouabain and Marinobufagenin Leads to Different Structural Changes in Na,K-ATPase and De; conditions: ref [39]; cited from earlier work
[2] = molecular target: T1, duck Na,K-ATPase (Anas platyrhynchos, UniProt Q7ZYV1); format: binding; conditions: 25 °C, pH 7.5, unit not given
Method: (§1) Purified preparation of Na,K-ATPase was obtained from duck salt glands as described elsewhere.
(§2) Experiments were carried out at 25 °C in four buffers, as described elsewhere: (E2P buffer) 10 mM imidazole, 3 mMTris/Pi, 1 mM EDTA, 3 mM MgCl2, 0.1 mM DTT, pH 7.5; (E1/E2 buffer) 10 mM imidazole, 130 mM NaCl, 20 mM KCl, 3 mM MgCl2, 0.1 mM DTT, pH 7.5; (E1 buffer) 10 mM imidazole, 1 mM EDTA, 3 mM NaCl, 0.1 mM DTT, pH 7.5; (E2 buffer) 10 mM imidazole, 1 mM EDTA, 3 mM KCl, and 0.1 mM DTT, pH 7,5. […] Aliquots (2.6 μL) of ligands were injected into a 0.24 mL cell containing the protein solution to achieve a complete binding isotherm. […] Equivalent amounts of DMSO was added to protein solutions to avoid thermal effects of dissolution.
(§3) The effective heat of binding was obtained by subtracting the heat of dilution from the heat of reaction. MicroCal Origin software was used to fit isothermal titration curves. […] The Gibbs energy and enthalpy changes […] were estimated according to the equations: ∆G = −RT lnKa and ∆G = ∆H − T∆S.

[3] = molecular target: T1, duck Na,K-ATPase; assay: Isothermal titration calorimetry (MicroCal iTC200), Aβ42 binding to Na,K-ATPase in different states; conditions: 25 °C; for T∆S, entropy variation: calculated from ∆G = ∆H − T∆S; for ∆H, enthalpy variation: three to four measurements, SD did not exceed ±10%
Method: Briefly, the peptide was dissolved in hexafluoroisopropanol (Fluka), dried, and stored at −80 °C. Before the experiment, the peptide was dissolved in DMSO for 1 h and then diluted in the buffer solution.
as §1, §2, §3

[4] = test system: Na,K-ATPase; conditions: ref [18]; cited from earlier work
Description: (§4) Here we study the binding interface of Aβ with Na,K-ATPase. Na,K-ATPase creates a sodium/potassium gradient, and inhibition of pump activity by Aβ leads to impairment of electrotonic properties of neurons.

[5] = test system: neuroblastoma cells SH-SY5Y; conditions: ref [18]; cited from earlier work
Description: as §4

[6] = hexafluoroisopropanol, dried, DMSO for 1 h, diluted in buffer; ref [18]; cited from earlier work
Method: Aβ42 peptide was synthesized by Biopeptide. […] Briefly, the peptide was dissolved in hexafluoroisopropanol (Fluka), dried, and stored at −80 °C. Before the experiment, the peptide was dissolved in DMSO for 1 h and then diluted in the buffer solution.

[7] = Na,K-ATPase in complex with Aβ42
[8] = enzyme in E2P conformation (without Aβ42)
[9] = OBN state (26 µM ouabain), pH 7.5

Compound	Na,K-ATPase conformation bound [1]	T∆S [2, 7]	∆H [2, 7]	T∆S [2, 8]	∆H [2, 8]	T∆S, entropy variation ([3]; E1/E2 state, pH 7.5) [kcal/mol]	∆H, enthalpy variation ([3]; E1/E2 state, pH 7.5) [kcal/mol]	T∆S, entropy variation ([3]; E1 state, pH 7.5) [kcal/mol]	∆H, enthalpy variation ([3]; E1 state, pH 7.5) [kcal/mol]	T∆S, entropy variation ([3]; E2P state, pH 7.5) [kcal/mol]	∆H, enthalpy variation ([3]; E2P state, pH 7.5) [kcal/mol]	Ka, affinity constant ([3]; E2 state, 10 mM imidazole, 1 mM EDTA, 3 mM KCl, 0.1 mM DTT, pH 7.5, measured three to four times, SD did not exceed ±20%) [M⁻¹]	T∆S, entropy variation ([3]; E2 state, pH 7.5) [kcal/mol]	∆H, enthalpy variation ([3]; E2 state, pH 7.5) [kcal/mol]	T∆S, entropy variation [3, 9] [kcal/mol]	∆H, enthalpy variation [3, 9] [kcal/mol]	Aβ42 binding to Na,K-ATPase in complex with ouabain compared with free enzyme ([3]; OBN state, sequential titration with ouabain then Aβ42 in E2P buffer)	effect of complex formation on enzyme hydrolytic activity [4]	effect of exogenous Aβ42 on enzyme transport and hydrolytic activity [5]	form present in the solution [6]
C[C@@H]1O[C@@H](O[C@H]2C[C@@H](O)[C@]3(CO)[C@H]4[C@H](O)C[C@]5(C)[C@@H](C6=CC(=O)OC6)CC[C@]5(O)[C@@H]4CC[C@]3(O)C2)[C@H](O)[C@H](O)[C@H]1O [ouabain]	binds predominantly to the E2P conformation	−10.8	−20.2 ± 0.7	−4.2	−13.7 ± 0.2	–	–	–	–	–	–	–	–	–	–	–	–	–	–	–
Aβ42: Aβ42 peptide was synthesized by Biopeptide	–	–	–	–	–	5.48	-2.54	6.02	-1.54	6.19	-1.59	490000	5.55	-2.21	6.87	-1.21	in the same way as the free enzyme; also recorded: did not change	dose-dependent inhibition of enzyme hydrolytic activity	pronounced decrease in enzyme transport and hydrolytic activity	mainly in the monomeric form
